The subject of assay [1] is αAmy3 SRC promoter. Description: Rice embryo transient expression assay, SRC-35Smp:Luc reporter (luciferase). The following applies: 24 h; for Antagonism of SnRK1A function on αAmy3 SRC promoter: co-transfected with Ubi:SnRK1A, +S or −S. It counts as cell-based. The procedure: FIG. 3. The highly conserved GKSKSF domain (KSD) is essential for SKINs to antagonize the function of SnRK1A. Rice embryos were transfected with plasmids, incubated in medium with 100 mM glucose (+S) or without glucose (−S) for 24 h, and assayed for luciferase activity. The luciferase activity in rice embryos bombarded with the SRC-35S mp-Luc construct only and in +S medium was set to 1×, and other values were calculated relative to this value. Error bars indicate the SE for three replicate experiments. (A) Plasmid constructs. (B) Rice embryos were co-transfected with effector Ubi:SnRK1A, Ubi:SKIN1 or Ubi:SKIN(Ri) alone and reporter SRC-35Smp:Luc, or co-transfected with effectors Ubi:SnRK1A and Ubi:SKIN or Ubi:SKIN(Ri) and reporter SRC-35Smp:Luc. (C) Total cellular proteins were extracted from rice embryos transfected with Ubi:SnRK1A, Ubi:SKIN or Ubi:SnRK1A and Ubi:SKIN by particle bombardment and subjected to Western blot analysis using antibodies against SnRK1A and the HA tag fused to at the N-terminus of SKINs. (D) Rice embryos were co-transfected with effectors Ubi:SnRK1A and Ubi:SKIN1 (wild-type or truncated) and reporter SRC-35Smp:Luc. (E) Rice embryos were co-transfected with effectors Ubi:SnRK1A and Ubi:SKIN (wild-type, KSD deleted, or KSD replaced with 6 Ala) and reporter SRC-35Smp:Luc.
(§1) FIG. 21. ABA and sorbitol suppress the function of SnRK1A in activation of αAmy3 SRC promoter. Rice embryos and barley aleurones were transfected with reporter SRC-35Smp:Luc with or without effectors, incubated with or without ABA for 24 h, and assayed for luciferase activity. The luciferase activity in embryos or aleurones bombarded with the SRC-35S mp-Luc construct only and in +S medium was set to 1×, and other values were calculated relative to this value. Error bars indicate the SE for three replicate experiments. (A) Plasmid constructs. (B) Barley aleurones were transfected with effector Ubi:SnRK1A, Ubi:SKIN1 or Ubi:SKIN(Ri) alone and reporter SRC-35Smp:Luc, or co-transfected with effectors Ubi:SnRK1A and Ubi:SKIN or Ubi:SKIN(Ri) and reporter SRC-35Smp:Luc. (C) Rice embryos (upper panel) were transfected with or without Ubi:SnRK1A and incubated with or without 1 μM ABA or 50 mM sorbitol, and barley aleurones (lower panel) were transfected with or without Ubi:SnRK1A and incubated with 5 μM ABA or 400 mM sorbitol.
Rice embryos were prepared for particle bombardment as described (Chen et al., 2006). The rice embryos were bombarded with reporter, effectors and internal control at a ratio of 4:2:1 for single effector or 4:2:2:1 for two effectors. The internal control (Ubi::GUS) was used to normalize the reporter enzyme activity because different transformation efficiency might occur in each independent experiment. Bombarded rice embryos were divided into two halves, with half being incubated in MS liquid medium containing 100 mM Glc, and the other half grown in MS liquid containing 100 mM mannitol, for 24 h. Total proteins were extracted for embryos with a cell lysis buffer [0.1 M K-phosphate, pH 7.8, 1 mM EDTA, 10% glycerol, 1% triton X-100, and 7 mM β-mercaptoethanol]. GUS assay buffer [0.1 M Na-phosphate, 20 mM EDTA, 0.2% sarcosine, 0.2% Triton X-100, and 20 mM β-mercaptoethanol] was used for GUS activity assay. The activity assay of GUS and luciferase were described elsewhere (Lu et al., 1998). All bombardments were repeated at least three times.

In assay [2] the test system is αAmy3 SRC promoter. The experiment in a line: Barley aleurone transient expression assay, SRC-35Smp:Luc reporter (luciferase). It counts as cell-based. The following applies: barley aleurones, 5 μM ABA or 400 mM sorbitol, 24 h. The procedure:
as §1
The barley aleurone/endosperm transient expression assays were performed as described (Hong et al., 2012). Each independent experiment consisted of three replicates, with six endosperms for each treatment, and was repeated three times with similar results. Luciferase and GUS activity assays were performed as described (Hong et al., 2012). […]

A further assay deals with SKIN1. Description: Quantitative RT-PCR of SKIN1 mRNA in leaves of 2-week-old rice seedlings after stress or ABA. It counts as in vivo. The following applies: 6 h after salt stress (200 mM NaCl). The procedure:
FIG. 9. The expression of SKIN is induced by various abiotic stresses and ABA, and SKINs promote the ABA sensitivity. (A) Total RNA was purified from leaves of 2-week-old rice seedlings that had been air dried, treated with 200 mM salt, incubated at 4° C., or treated with 1 μM ABA, or from embryos of seedlings grown underwater (hypoxia), for various lengths of time. RNAs were subjected to quantitative RT-PCR analysis using primers specific for SKIN1 and SKIN2. The highest mRNA level was set as 100%. The lowest mRNA level was assigned a value of 1× and mRNA levels of other samples were calculated relative to this value. Error bars indicate the SE for three replicate experiments. (B) Seeds of transgenic lines SKIN1-Ox(O3), SKIN1-Ri(R3), SKIN2-Ox(02) and SKIN2-Ri(R1) were germinated and grown in water containing various concentrations of ABA at 28° C. under a 14-h light/10-h dark cycle for 6 days. Lengths of shoots were measured. Error bars represent SE (n=8) at significance levels: * p<0.1, ** p<0.05. […]
Total RNA was extracted from leaves of rice seedlings with the Trizol reagent (Invitrogen) and treated with RNase-free DNase I (Promega, Madison, Wis.). […] The quantitative variation between different samples was evaluated by the delta-delta CT method, and the amplification of 18S ribosomal RNA was used as an internal control to normalize all data.

Assay [3] deals with T1, GAD-SnRK1A (full-length SnRK1A 1-505 fused to the Gal4 activation domain) (rice, UniProt Q852Q2 1-505).
T1 construct: range 1-505
T1 sequence (looked up): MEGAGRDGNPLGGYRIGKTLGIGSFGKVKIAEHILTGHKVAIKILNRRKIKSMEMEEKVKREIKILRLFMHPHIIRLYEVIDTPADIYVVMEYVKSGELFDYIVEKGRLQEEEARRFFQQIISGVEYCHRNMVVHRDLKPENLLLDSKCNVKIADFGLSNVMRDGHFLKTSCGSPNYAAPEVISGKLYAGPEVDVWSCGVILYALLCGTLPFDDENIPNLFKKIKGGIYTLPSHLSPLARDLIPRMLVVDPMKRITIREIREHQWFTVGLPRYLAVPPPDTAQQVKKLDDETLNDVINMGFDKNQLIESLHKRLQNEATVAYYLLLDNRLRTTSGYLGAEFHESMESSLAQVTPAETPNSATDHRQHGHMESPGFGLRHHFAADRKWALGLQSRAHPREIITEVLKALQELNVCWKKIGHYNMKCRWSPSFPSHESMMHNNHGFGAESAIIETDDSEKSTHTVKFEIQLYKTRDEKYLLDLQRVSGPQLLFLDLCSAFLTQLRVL
Description: yeast two-hybrid, GBD-SKIN1 truncation with GAD-SnRK1A. The text has this:
FIG. 14. The N-terminal amino acids 1-83 of SKIN1 interact with the kinase and autoinhibitory domains of SnRK1A in yeast. (A) Plasmid constructs ADH1:GAD-SnRK1A and ADH1:GBD-SKIN1 (wild type or deletion at N- or C-terminus) were used as effectors, and Mel1:LacZ, Mel1:Mel1 and Gal1:HIS3 were used as reporters. (B) The N-terminus of SKIN1 interacts with SnRK1A in the yeast two-hybrid assays. (C) The kinase domain (KD) and auto-inhibitory domain (AID) of SnRK1A interact with SKIN1 and SKIN2. Yeast strain AH109 containing GAD-SnRK1A or GAD alone (-) was mated with yeast strain Y187 containing various GBD-SKIN1 constructs or GBD alone (-). The interaction between p53 and large T-antigen (T-Ag) was used as a positive control.

As to `OC[C@@H](O)[C@@H](O)[C@H](O)[C@@H](O)CO` [sorbitol], the “Effect on αAmy3 SRC promoter (luciferase activity), alone and SnRK1A-activated” value in the assay on αAmy3 SRC promoter [1] (rice embryos, 1 μM ABA or 50 mM sorbitol) is reported as “suppressed”; in the assay with αAmy3 SRC promoter [2] it was “suppressed”.
As to `[Cl-].[Na+]` [salt, NaCl], the “Induction of SKIN1 mRNA accumulation” value in the assay on SKIN1 is given as at most 2.3 fold.

B1: SnRK1A: rice Snf1-related protein kinase 1A, overexpressed from Ubi:SnRK1A effector (protein)
chain: MEGAGRDGNPLGGYRIGKTLGIGSFGKVKIAEHILTGHKVAIKILNRRKIKSMEMEEKVKREIKILRLFMHPHIIRLYEVIDTPADIYVVMEYVKSGELFDYIVEKGRLQEEEARRFFQQIISGVEYCHRNMVVHRDLKPENLLLDSKCNVKIADFGLSNVMRDGHFLKTSCGSPNYAAPEVISGKLYAGPEVDVWSCGVILYALLCGTLPFDDENIPNLFKKIKGGIYTLPSHLSPLARDLIPRMLVVDPMKRITIREIREHQWFTVGLPRYLAVPPPDTAQQVKKLDDETLNDVINMGFDKNQLIESLHKRLQNEATVAYYLLLDNRLRTTSGYLGAEFHESMESSLAQVTPAETPNSATDHRQHGHMESPGFGLRHHFAADRKWALGLQSRAHPREIITEVLKALQELNVCWKKIGHYNMKCRWSPSFPSHESMMHNNHGFGAESAIIETDDSEKSTHTVKFEIQLYKTRDEKYLLDLQRVSGPQLLFLDLCSAFLTQLRVL
modifications: left off: large carriers
As to B1, the “αAmy3 SRC promoter activity on overexpression of the effector” value in the assay on αAmy3 SRC promoter [1] (100 mM glucose (+S) or without glucose (−S)) is reported as “enhanced”.

B2: GBD-SKIN1 84-259 (other)
chain: MKLLSSIEQACDICRLKKLKCSKEKPKCAKCLKNNWECRYSPKTKRSPLTRAHLTEVESRLERLEQLFLLIFPREDLDMILKMDSLQDIKALLTGLFVQDNVNKDAVTDRLASVETDMPLTLRQHRISATSSSEESSNKGQRQLTVSVESKLKAEDEQVGLGCLDALEESLPIKRGLSNFYAGKSKSFTSLAEATASPAAAANELAKPENPFNKRRRILATWSRRASCSSLATATYLPPLLAPDHAVAEGDEGEEEDDDSDDDERQHRGKNGGRRESAAPPLPLPPPRLTLHTQMGGMVRRNGTFRSPRSLSLSDLQNSGGSC
With B2, the binding result in assay [3] is recorded as “no binding”.

B3: GBD-SKIN1 160-259 (other)
chain: MKLLSSIEQACDICRLKKLKCSKEKPKCAKCLKNNWECRYSPKTKRSPLTRAHLTEVESRLERLEQLFLLIFPREDLDMILKMDSLQDIKALLTGLFVQDNVNKDAVTDRLASVETDMPLTLRQHRISATSSSEESSNKGQRQLTVSRRASCSSLATATYLPPLLAPDHAVAEGDEGEEEDDDSDDDERQHRGKNGGRRESAAPPLPLPPPRLTLHTQMGGMVRRNGTFRSPRSLSLSDLQNSGGSC
Regarding B3, the “Antagonism of SnRK1A function on αAmy3 SRC promoter” value with αAmy3 SRC promoter [1] was “did not antagonize”. The binding result in assay [3] is reported as “no binding”.

B4: SKIN1(1-83): truncated SKIN1 containing amino acids 1-83 (protein)
chain: MKLLSSIEQACDICRLKKLKCSKEKPKCAKCLKNNWECRYSPKTKRSPLTRAHLTEVESRLERLEQLFLLIFPREDLDMILKMDSLQDIKALLTGLFVQDNVNKDAVTDRLASVETDMPLTLRQHRISATSSSEESSNKGQRQLTVSMSTAVADVPPAAAYGFPGSAKRGKPEEVVVLMGKRRNEGFFIEEEEEEEEVLTESSSIGAPSPASSSIGENSGEEEGGDDEEE
Turning to B4, the “Antagonism of SnRK1A function on αAmy3 SRC promoter” value with αAmy3 SRC promoter [1] was “did not antagonize”.

B5: GBD-SKIN1 84-159 (other)
chain: MKLLSSIEQACDICRLKKLKCSKEKPKCAKCLKNNWECRYSPKTKRSPLTRAHLTEVESRLERLEQLFLLIFPREDLDMILKMDSLQDIKALLTGLFVQDNVNKDAVTDRLASVETDMPLTLRQHRISATSSSEESSNKGQRQLTVSVESKLKAEDEQVGLGCLDALEESLPIKRGLSNFYAGKSKSFTSLAEATASPAAAANELAKPENPFNKRRRILATWS
For B5, the binding result in assay [3] was “no binding”.
